In general, Kd refers to the concentration at which binding is half-saturated.

Sequence of recombinant human Osteolectin (human) (Q9Y240 22-323): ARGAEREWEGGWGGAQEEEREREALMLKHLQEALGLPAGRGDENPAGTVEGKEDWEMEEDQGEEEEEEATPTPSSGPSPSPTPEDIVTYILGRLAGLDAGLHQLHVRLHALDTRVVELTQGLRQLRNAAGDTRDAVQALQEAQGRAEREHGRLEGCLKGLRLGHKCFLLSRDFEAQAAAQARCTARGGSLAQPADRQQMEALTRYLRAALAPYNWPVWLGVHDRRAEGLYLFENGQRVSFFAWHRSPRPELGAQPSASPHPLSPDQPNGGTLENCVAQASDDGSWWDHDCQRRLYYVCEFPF

This assay concerns the target recombinant human Osteolectin (human) (UniProt Q9Y240). The experiment in a line: ELISA; microtiter well binding assay; plates coated with 10 nM recombinant human Osteolectin, Pro-Collagen 1α or BSA overnight at 4°C, blocked with 10 mg/ml BSA; 6xHis tagged integrins in TBS (50 mM Tris-Cl pH 7.5, 150 mM NaCl) with 1 mM MnCl2; bound integrin detected with anti-His tag antibody and HRP secondary, OD 450 nm. On the technique in general: In an ELISA, binding on a coated surface is turned into a signal by an enzyme label.
With “recombinant human integrin αIIbβ3 (from UniProt P08514 32-1039; P05106 27-718) (complex)”, the equilibrium dissociation constant (Kd) was greater than 100 nM.

For “recombinant human integrin αVβ1 (from UniProt P06756 31-1048; P05556 21-728) (complex)”, the Kd was greater than 100 nM.

In the case of “recombinant human integrin αVβ3 (from UniProt P06756 31-1048; P05106 27-718) (complex)”, the Kd is greater than 100 nM.
